For four molecules, time for which complexes with HLA-A*02:01 lasted results are on record in PMC6122969.

Bounds are passed on as bounds.

The target in this assay is HLA-A*02:01 on T2 cells (human (endogenous in T2)). The experiment in a line: flow cytometry on cells. Background: A flow cytometer gives signals particle by particle.
LTLLGTLWGA [p34 peptide … from PCDHGA6]: the time for which complexes with HLA-A*02:01 lasted is more than 4 h.
FLGPWPAAS [p14 peptide … from the LRPAP1 signal peptide] registered a time for which complexes with HLA-A*02:01 lasted of more than 4 h.
SVLWLGALGL [p35 peptide … from C20orf141] returned a time for which complexes with HLA-A*02:01 lasted of more than 4 h.
In the case of VIIKPLVWV [p55 peptide … from APCS] it was more than 4 h.
